T1: 1-27 CD3-EpCAM, human 27 mer (human; cynomolgus)
T1 construct: On transfected cells; also called N-terminal amino acids 1-27 of human CD3 epsilon fused to Flag tagged cynomolgus EpCAM
T1 chain: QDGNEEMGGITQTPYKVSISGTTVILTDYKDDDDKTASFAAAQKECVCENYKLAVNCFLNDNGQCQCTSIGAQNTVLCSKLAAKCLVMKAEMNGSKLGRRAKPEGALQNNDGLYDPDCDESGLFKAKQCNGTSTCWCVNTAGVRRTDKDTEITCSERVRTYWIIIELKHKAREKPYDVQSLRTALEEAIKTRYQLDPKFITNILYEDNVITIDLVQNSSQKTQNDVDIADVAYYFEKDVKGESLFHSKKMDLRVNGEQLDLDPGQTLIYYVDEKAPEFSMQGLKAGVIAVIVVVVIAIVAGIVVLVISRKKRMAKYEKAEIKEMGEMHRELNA

T2: 1-27 CD3-EpCAM, swine 27 mer (domestic swine (Sus scrofa); cynomolgus)
T2 construct: Negative control, on transfected cells; also called 1-27 N-terminal CD3 epsilon of swine fused to cynomolgus EpCAM
T2 chain: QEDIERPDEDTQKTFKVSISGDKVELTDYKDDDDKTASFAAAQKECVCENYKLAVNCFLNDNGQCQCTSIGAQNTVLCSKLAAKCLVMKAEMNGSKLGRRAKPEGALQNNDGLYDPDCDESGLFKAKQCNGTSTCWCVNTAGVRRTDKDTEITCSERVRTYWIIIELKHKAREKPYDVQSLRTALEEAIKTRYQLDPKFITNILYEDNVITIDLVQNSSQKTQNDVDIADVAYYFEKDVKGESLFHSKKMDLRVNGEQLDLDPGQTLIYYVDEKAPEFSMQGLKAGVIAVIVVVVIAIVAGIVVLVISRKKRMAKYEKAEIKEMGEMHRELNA


Assays:
[1] = target: T3, human CD3 (native, on HPB-ALL cells or human PBMC) (human, UniProt P07766 23-207); experiment: FACS HPB-ALL
T3 construct: whole, on cells; Other chains of the CD3/TCR complex are present on the cells; also called human CD3 epsilon; native CD3 on intact T cells
T3 sequence (P07766 23-207): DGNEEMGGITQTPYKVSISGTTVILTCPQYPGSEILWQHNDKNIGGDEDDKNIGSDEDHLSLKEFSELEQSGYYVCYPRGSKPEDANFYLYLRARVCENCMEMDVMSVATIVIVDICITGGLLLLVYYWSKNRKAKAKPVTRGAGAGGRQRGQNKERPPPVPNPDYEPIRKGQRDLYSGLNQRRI

1-27 CD3-Fc [2] = target: T4, 1-27 CD3-Fc (human); experiment: SPR (Biacore), 1-27 CD3-Fc immobilised
T4 construct: also called 27 aa huCD3E; human CD3 epsilon (aa 1-27)-Fc fusion protein

[3] = target: T1, 1-27 CD3-EpCAM, human 27 mer; experiment: FACS 293-HEK transfectant
1-27 CD3-Fc [4] = target: T4, 1-27 CD3-Fc; experiment: ELISA, captured 1-27 CD3-Fc
[5] = target: T2, 1-27 CD3-EpCAM, swine 27 mer; experiment: FACS on 293-HEK transfectants

Kd (1-27 CD3-Fc [2]) [nM]	binding result (1-27 CD3-Fc [4])	Binder	also measured
		MCSP-G4 HLP × E2M HLP (bispecific antibody) QVQLVQSGAEVKRPGASMKVSCKASGYTFTNYYIHWVRQAPGQGLEWMGWINPNSGATNYAQKFQGRVTMTRDTSTSTVYMELSSLRSEDTAVYYCAKSWVSWFASWGQGTLVTVSSGGGGSGGGGSGGGGSELVMTQSPDSLAVSLGERATINCKSSQSVLNSSNNRNYLAWYQQKPGQPPKLLIYWASTRESGVPDRFSGSGSGTDFTLTISGLQAEDVAVYYCQQHYSTPFTFGPGTKVDIKSGGGGSEVQLLESGGGLVQPGGSLKLSCAASGFTFNGYAMNWVRQAPGKGLEWVARIRSKYNNYATYYADSVKERFTISRDDSKNTAYLQMNNLKTEDTAVYYCVRHRNFGNSYLSWFAYWGQGTLVTVSSGGGGSGGGGSGGGGSELVVTQEPSLTVSPGGTVTLTCRSSTGAVTSGYYPNWVQQKPGQAPRGLIGATDMRPSGTPARFSGSLLGGKAALTLSGVQPEDEAEYYCALWYSNRWVFGGGTKLTVL	binding result [1]: binds
249		EGFR-21-63 LH × A2J HLP (bispecific antibody, also called EGFR LH × A2J HLP) DIVLTQSPASLPVSLGQRATISCRASQSVSSSTYSYIHWYQQKPGQPPKLLITYASNLESGVPARFSGSGSGTDFTLDIHPVEEDDSSTYYCQHSWEIPFTFGSGTKLEIKGGGGSGGGGSGGGGSQVQLQQSGPDLVKPGASVKMSCKASGHTFTDCVIIWVKQRAGQGLEWIGQIYPGTGRSYYNEIFKGKATLTADKSSNTVHIQLSSLTSEDSAVYFCALSTLIHGTWFSYWGQGTLVTVSSGGGGSEVQLLESGGGLVQPGGSLKLSCAASGFTFNVYAMNWVRQAPGKGLEWVARIRSKYNNYATYYADSVKKRFTISRDDSKNTAYLQMNNLKTEDTAVYYCVRHGNFGNSYLSWWAYWGQGTLVTVSSGGGGSGGGGSGGGGSELVVTQEPSLTVSPGGTVTLTCRSSTGAVTSGYYPNWVQQKPGQAPRGLIGATDMRPSGTPARFSGSLLGGKAALTLSGVQPEDEAEYYCALWYSNRWVFGGGTKLTVL	
2460		EGFR-21-63 LH × E2M HLP (bispecific antibody, also called EGFR LH × E2M HLP) DIVLTQSPASLPVSLGQRATISCRASQSVSSSTYSYIHWYQQKPGQPPKLLITYASNLESGVPARFSGSGSGTDFTLDIHPVEEDDSSTYYCQHSWEIPFTFGSGTKLEIKGGGGSGGGGSGGGGSQVQLQQSGPDLVKPGASVKMSCKASGHTFTDCVIIWVKQRAGQGLEWIGQIYPGTGRSYYNEIFKGKATLTADKSSNTVHIQLSSLTSEDSAVYFCALSTLIHGTWFSYWGQGTLVTVSSGGGGSEVQLLESGGGLVQPGGSLKLSCAASGFTFNGYAMNWVRQAPGKGLEWVARIRSKYNNYATYYADSVKERFTISRDDSKNTAYLQMNNLKTEDTAVYYCVRHRNFGNSYLSWFAYWGQGTLVTVSSGGGGSGGGGSGGGGSELVVTQEPSLTVSPGGTVTLTCRSSTGAVTSGYYPNWVQQKPGQAPRGLIGATDMRPSGTPARFSGSLLGGKAALTLSGVQPEDEAEYYCALWYSNRWVFGGGTKLTVL	
	binds	E2M HLP (scFv, crude periplasmic preparation, Flag and His6 tagged) scFv: EVQLLESGGGLVQPGGSLKLSCAASGFTFNGYAMNWVRQAPGKGLEWVARIRSKYNNYATYYADSVKERFTISRDDSKNTAYLQMNNLKTEDTAVYYCVRHRNFGNSYLSWFAYWGQGTLVTVSSGGGGSGGGGSGGGGSELVVTQEPSLTVSPGGTVTLTCRSSTGAVTSGYYPNWVQQKPGQAPRGLIGATDMRPSGTPARFSGSLLGGKAALTLSGVQPEDEAEYYCALWYSNRWVFGGGTKLTVL	binding result [3]: binds; binding result [5]: no binding
	binds	A2J HLP (scFv, crude periplasmic preparation, Flag and His6 tagged) scFv: EVQLLESGGGLVQPGGSLKLSCAASGFTFNVYAMNWVRQAPGKGLEWVARIRSKYNNYATYYADSVKKRFTISRDDSKNTAYLQMNNLKTEDTAVYYCVRHGNFGNSYLSWWAYWGQGTLVTVSSGGGGSGGGGSGGGGSELVVTQEPSLTVSPGGTVTLTCRSSTGAVTSGYYPNWVQQKPGQAPRGLIGATDMRPSGTPARFSGSLLGGKAALTLSGVQPEDEAEYYCALWYSNRWVFGGGTKLTVL	

From patent US20100150918A1 (MICROMET, published 2010)
